The record followed here is article PMC9646525, “Cryo-EM structure of the SEA complex” (Nature, 2022).

One assay concerns the target T1, Sea2 (S. cerevisiae (endogenous in yeast …, UniProt Q08281 1-1341)).
T1 construct: Sea2, S. cerevisiae, endogenous subunit of the SEAC (SEACAT, core); Native protein of the purified complex; two copies in the SEAC; source: endogenous, yeast cells expressing Sea4-TAP; in lysate and co-purified with Sea4-TAP (IgG Dynabeads, TEV elution)
T1 sequence (looked up): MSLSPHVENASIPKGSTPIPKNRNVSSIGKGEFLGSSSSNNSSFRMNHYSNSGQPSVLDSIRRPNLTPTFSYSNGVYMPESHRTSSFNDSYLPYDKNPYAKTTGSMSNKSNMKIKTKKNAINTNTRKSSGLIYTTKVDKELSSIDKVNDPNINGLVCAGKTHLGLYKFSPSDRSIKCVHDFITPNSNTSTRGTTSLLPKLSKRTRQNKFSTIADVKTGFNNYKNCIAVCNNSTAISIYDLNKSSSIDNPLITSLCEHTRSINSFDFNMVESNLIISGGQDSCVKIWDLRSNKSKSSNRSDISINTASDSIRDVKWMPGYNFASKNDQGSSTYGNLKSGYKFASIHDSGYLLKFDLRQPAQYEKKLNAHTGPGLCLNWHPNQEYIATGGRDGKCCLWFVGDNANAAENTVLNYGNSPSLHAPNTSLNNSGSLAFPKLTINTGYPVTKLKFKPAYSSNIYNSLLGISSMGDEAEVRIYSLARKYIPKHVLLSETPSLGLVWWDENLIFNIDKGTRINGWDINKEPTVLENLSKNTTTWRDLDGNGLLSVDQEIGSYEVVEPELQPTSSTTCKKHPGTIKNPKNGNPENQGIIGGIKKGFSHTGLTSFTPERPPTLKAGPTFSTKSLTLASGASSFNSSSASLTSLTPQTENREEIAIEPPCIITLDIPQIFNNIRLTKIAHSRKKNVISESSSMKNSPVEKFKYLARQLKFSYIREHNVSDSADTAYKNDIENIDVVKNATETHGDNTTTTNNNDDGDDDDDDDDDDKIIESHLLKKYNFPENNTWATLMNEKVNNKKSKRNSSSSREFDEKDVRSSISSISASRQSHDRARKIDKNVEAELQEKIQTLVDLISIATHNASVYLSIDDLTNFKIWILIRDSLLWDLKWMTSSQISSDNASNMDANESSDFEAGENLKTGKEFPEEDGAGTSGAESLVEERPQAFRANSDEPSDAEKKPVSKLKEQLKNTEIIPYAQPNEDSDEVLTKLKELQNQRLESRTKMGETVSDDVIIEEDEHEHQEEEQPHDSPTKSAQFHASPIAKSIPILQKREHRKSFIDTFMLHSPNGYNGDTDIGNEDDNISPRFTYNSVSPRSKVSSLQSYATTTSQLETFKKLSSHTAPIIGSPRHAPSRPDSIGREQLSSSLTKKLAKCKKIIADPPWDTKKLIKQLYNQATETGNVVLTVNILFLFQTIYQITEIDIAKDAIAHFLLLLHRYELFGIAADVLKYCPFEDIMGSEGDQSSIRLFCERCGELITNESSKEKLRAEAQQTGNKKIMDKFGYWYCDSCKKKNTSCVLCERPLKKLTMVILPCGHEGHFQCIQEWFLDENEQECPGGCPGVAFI
Briefly: co-IP; Sea4-TAP captured from cleared yeast lysate on IgG-coupled Dynabeads, washed, eluted with TEV protease, Coomassie-stained SDS-PAGE; 4 °C, 20 mM HEPES-NaOH pH 7.4, 300 mM NaCl, 5 mM CHAPS, 10% glycerol; wild-type, ΔNpr3, Npr2^R84A and Sea1^R943A strains. The following applies: partners not purified.

Another assay addresses T2, Sea3 (S. cerevisiae (endogenous in yeast …, UniProt Q03897 1-1148)).
T2 construct: Sea3, S. cerevisiae, endogenous subunit of the SEAC; Sea3^SIP (Sea3^Nter) lies in the wing, Sea3^SAP (Sea3^Cter) in the core; Native protein of the purified complex; two copies in the SEAC; source: endogenous, yeast cells expressing Sea4-TAP; in lysate and co-purified with Sea4-TAP (IgG Dynabeads, TEV elution)
T2 sequence (looked up): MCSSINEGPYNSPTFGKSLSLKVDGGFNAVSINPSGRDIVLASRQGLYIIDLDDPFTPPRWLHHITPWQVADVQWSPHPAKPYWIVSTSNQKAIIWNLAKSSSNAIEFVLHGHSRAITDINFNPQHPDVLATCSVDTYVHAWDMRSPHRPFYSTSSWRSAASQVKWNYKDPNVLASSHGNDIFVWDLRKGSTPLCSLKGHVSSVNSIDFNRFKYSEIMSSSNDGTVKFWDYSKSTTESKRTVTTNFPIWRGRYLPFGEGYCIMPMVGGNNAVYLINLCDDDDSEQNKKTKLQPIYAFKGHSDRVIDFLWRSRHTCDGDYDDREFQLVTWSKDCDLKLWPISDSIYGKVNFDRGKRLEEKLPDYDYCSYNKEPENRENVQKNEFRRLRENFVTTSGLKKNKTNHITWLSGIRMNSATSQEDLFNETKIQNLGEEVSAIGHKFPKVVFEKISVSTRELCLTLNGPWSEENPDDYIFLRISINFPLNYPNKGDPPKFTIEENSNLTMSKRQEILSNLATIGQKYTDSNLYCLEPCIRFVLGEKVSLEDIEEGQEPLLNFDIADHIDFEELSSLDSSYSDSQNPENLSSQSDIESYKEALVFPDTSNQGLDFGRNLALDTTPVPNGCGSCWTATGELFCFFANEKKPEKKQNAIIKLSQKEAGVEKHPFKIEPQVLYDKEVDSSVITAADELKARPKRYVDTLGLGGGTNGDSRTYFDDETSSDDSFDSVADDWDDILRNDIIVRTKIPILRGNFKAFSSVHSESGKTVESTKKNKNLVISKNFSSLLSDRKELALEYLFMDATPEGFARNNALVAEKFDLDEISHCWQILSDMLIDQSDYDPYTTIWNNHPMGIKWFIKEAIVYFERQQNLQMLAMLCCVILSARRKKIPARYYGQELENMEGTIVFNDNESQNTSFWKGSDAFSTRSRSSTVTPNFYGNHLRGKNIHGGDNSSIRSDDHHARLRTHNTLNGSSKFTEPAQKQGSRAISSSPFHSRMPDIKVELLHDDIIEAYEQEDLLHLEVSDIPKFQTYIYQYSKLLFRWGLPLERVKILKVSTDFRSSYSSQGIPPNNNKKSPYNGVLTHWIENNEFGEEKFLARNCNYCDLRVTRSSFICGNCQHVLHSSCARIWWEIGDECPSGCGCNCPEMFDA
The description is as above. The note with it: partners not purified.

B1: Sea4-TAP (natural protein, UniProt P38164 1-1038, looked up)
chain: MGLIKKVTHWSYDNLIDYLSVNPTRDEVTHYKVDPENESDESIIKLHTVKDFGSITCLDYSESEIGMIGVGEKNGYLRIFNISGQNSSSPASHAPVGLNANNETSMTNASGGKAAQAENIVGSVSNLKDTQGYPVSETNYDIRVRAKKQRCINSLGINTNGLIAMGLDRNKHDSSLQIWDMNYHDDSHETINPMFSYCTNESIVSLKFLNDTSVLAASTKFLKEIDVRSPNPIYQHPTRLTYDIKLNPFNDWQFSTYGDDGTLAIWDRRKLSDQASLGDLNVASPLLTFEKLVGSGAASRKYMNSCFRWSCVRNNEFATLHRGDTIKRWRLGYYCDSNRDIAADDDNEMNIENLFVSSVHDTNTMYDRVATFDYIPRSNNGTSLICMRQSGTIYRMPISEVCSKAILNNRNSLLLSNFENTEIDEIRVNNEHEKSNLENVKTILKNLSFEDLDVSEDYFPSGHDEPNNEIEYSELSEEENEGSNDVLDSKRGFELFWKPEKLLEKDISVIMRTRASLGYGLDPMNTVEMIDSSKNLQNNAYIRNTWRWIAIAKASVDDGTMVSGDLDLGYEGVIGIWNGINGISNQDRYRQETILSDKQLNKEMEKIIKLRRKNRDRNSPIANAAGSPKYVQRRLCLIISGWDLSRSDYEDKYNIIMKNGHYEKAAAWAVFFGDIPKAVEILGSAKKERLRLIATAIAGYLAYKDLPGNNAWRQQCRKMSSELDDPYLRVIFAFIADNDWWDILYEPAISLRERLGVALRFLNDTDLTTFLDRTSSTVIENGELEGLILTGITPNGIDLLQSYVNKTSDVQSAALISIFGSPRYFRDQRVDEWIQTYRDMLKSWELFSMRARFDVLRSKLSRTKTGVLTADIKPRQIYIQCQNCKQNINTPRTSSPSSAVSTSAGNYKNGEAYRRNNADYKKFNTGSSEAQAADEKPRHKYCCPHCGSSFPRCAICLMPLGTSNLPFVINGTQSRDPMQTEDSQDGANRELVSRKLKLNEWFSFCLSCNHGMHAGHAEEWFDRHNVCPTPGCTCQCNK
notes: Sea4, S. cerevisiae, endogenous subunit of the SEAC (SEACAT, core), TAP-tagged; Captured by the TAP tag on IgG beads; the complex was released with TEV protease before SDS-PAGE and cryo-EM; Written 'Sea4-TAP'; Four copies in the SEAC; source: endogenous, yeast cells expressing Sea4-TAP; in lysate, purified on IgG-coupled Dynabeads and eluted with TEV protease
For B1, the binding result with Sea2 and with Sea3 was “binds” each time.
